Experimental data as given in patent US20220380459A1 (DRAGONFLY THERAPEUTICS, published 2022).
Changes are numbered by the printed parent chain. Blank lines part the entries; values can stand above or below the binder they belong to.

Molecular target: T1, human CD33 expressed on cells (human, UniProt P20138 18-364)
T1 construct: endogenous CD33 of human AML cell lines and blood monocytes; also called cell-expressed CD33 (Molm-13, Mv4-11, monocytes)
Assay: flow cytometry on Molm-13 cells, fluorophore-conjugated anti-human IgG secondary antibody, MFI as fold over background (FOB)
Procedure: Binding of the TriNKET was detected using a fluorophore conjugated anti-human IgG secondary antibody. Cells were analyzed by flow cytometry, binding MFI to cell expressed CD33 was normalized to secondary antibody controls to obtain fold over background values.

T1 sequence (P20138 18-364): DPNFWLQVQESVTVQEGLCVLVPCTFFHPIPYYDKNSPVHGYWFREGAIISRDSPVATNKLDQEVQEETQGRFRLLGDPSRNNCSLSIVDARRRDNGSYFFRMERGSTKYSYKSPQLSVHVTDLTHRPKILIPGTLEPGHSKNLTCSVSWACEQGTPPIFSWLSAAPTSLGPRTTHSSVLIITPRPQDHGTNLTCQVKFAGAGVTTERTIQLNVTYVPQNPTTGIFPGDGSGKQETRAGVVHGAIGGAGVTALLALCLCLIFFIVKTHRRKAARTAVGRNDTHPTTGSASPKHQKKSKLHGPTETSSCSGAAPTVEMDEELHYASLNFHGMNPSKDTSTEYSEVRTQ

B1: A44.G59 (bispecific antibody)
NKG2D-binding VH: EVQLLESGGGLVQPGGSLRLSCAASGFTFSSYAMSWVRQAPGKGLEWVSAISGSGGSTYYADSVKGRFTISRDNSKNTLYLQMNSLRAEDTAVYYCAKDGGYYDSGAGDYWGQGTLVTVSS
NKG2D-binding VL: DIQMTQSPSSVSASVGDRVTITCRASQGIDSWLAWYQQKPGKAPKLLIYAASSLQSGVPSRFSGSGSGTDFTLTISSLQPEDFATYYCQQGVSYPRTFGGGTKVEIK
CD33-binding VH: EVQLVESGGGLVQPGGSLRLSCAASGFTFSSYGMSWVRQAPGKGLEWVANIKQDGSEKYYVDSVKGRFTISRDNAKNSLYLQMNSLRAEDTAVYYCAREGGPYYDSSGYFVYYGMDVWGQGTTVTVSS
CD33-binding VL: DIQMTQSPSTLSASVGDRVTITCRASQSISSWLAWYQQKPGKAPKLLIYDASSLESGVPSRFSGSGSGTEFTLTISSLQPDDFATYYCQQYESFPTFGGGTKVEIK
binding result: binds

B3: C26.H76 (bispecific antibody)
NKG2D-binding VH: QVQLQQWGAGLLKPSETLSLTCAVYGGSFSGYYWSWIRQPPGKGLEWIGEIDHSGSTNYNPSLKSRVTISVDTSKNQFSLKLSSVTAADTAVYYCARARGPWSFDPWGQGTLVTVSS
NKG2D-binding VL: DIQMTQSPSTLSASVGDRVTITCRASQSISSWLAWYQQKPGKAPKLLIYKASSLESGVPSRFSGSGSGTEFTLTISSLQPDDFATYYCQQYGSFPITFGGGTKVEIK
CD33-binding VH: EVQLLESGGGLVQPGGSLRLSCAASGFTFSKYTMSWVRQAPGKGLEWVSAIVGSGESTYFADSVKGRFTISRDNSKNTLYLQMNSLRAEDTAVYYCAREGGPYYDSSGYFVYYGMDVWGQGTTVTVSS
CD33-binding VL: B1 CD33-binding VL with D50K, E92D, S93D, F94L
binding result: binds

B4: A40.H76 (bispecific antibody)
NKG2D-binding VH: B3 NKG2D-binding VH
NKG2D-binding VL: B1 CD33-binding VL with S30G, D50K, E92H, P95Y
CD33-binding VH: B3 CD33-binding VH
CD33-binding VL: B1 CD33-binding VL with D50K, E92D, S93D, F94L
binding result: binds

B6: A44.H76 (bispecific antibody)
NKG2D-binding VH: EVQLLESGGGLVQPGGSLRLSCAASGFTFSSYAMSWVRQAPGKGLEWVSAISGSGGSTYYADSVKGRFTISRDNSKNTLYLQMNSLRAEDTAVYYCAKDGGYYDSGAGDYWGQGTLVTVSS
NKG2D-binding VL: B1 NKG2D-binding VL
CD33-binding VH: B3 CD33-binding VH
CD33-binding VL: B1 CD33-binding VL with D50K, E92D, S93D, F94L
binding result: binds

B10: A44.I35 (bispecific antibody)
NKG2D-binding VH: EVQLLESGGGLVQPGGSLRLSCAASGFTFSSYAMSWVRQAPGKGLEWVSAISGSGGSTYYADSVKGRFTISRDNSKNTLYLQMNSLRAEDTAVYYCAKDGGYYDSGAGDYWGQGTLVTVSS
NKG2D-binding VL: B1 NKG2D-binding VL
CD33-binding VH: QLQLQESGPGLVKPSETLSLTCTVSGGSISSTDYYWGWIRQPPGKGLEWIGSIGYSGTYYNPSLKSRVTISVDTSKNQFSLKLSSVTAADTAVYYCARETAHDVHGMDVWGQGTTVTVSS
CD33-binding VL: EIVLTQSPATLSLSPGERATLSCRASHSVYSYLAWYQQKPGQAPRLLIYDASNRATGIPARFSGSGSGTDFTLTISSLEPEDFAVYYCQQYDNLPTFGGGTKVEIK
binding result: binds

B11: A40.G59 (bispecific antibody)
NKG2D-binding VH: B3 NKG2D-binding VH
NKG2D-binding VL: B1 CD33-binding VL with S30G, D50K, E92H, P95Y
CD33-binding VH: B1 CD33-binding VH
CD33-binding VL: B1 CD33-binding VL
binding result: binds

B12: A49.I35 (bispecific antibody)
NKG2D-binding VH: EVQLVESGGGLVKPGGSLRLSCAASGFTFSSYSMNWVRQAPGKGLEWVSSISSSSSYIYYADSVKGRFTISRDNAKNSLYLQMNSLRAEDTAVYYCARGAPMGAAAGWFDPWGQGTLVTVSS
NKG2D-binding VL: B1 NKG2D-binding VL with D30S, Y94F
CD33-binding VH: B10 CD33-binding VH
CD33-binding VL: B10 CD33-binding VL
binding result: binds

B13: F47.H76 (bispecific antibody)
NKG2D-binding VH: B3 NKG2D-binding VH
NKG2D-binding VL: B1 CD33-binding VL with D50K, E92D, S93T, P95I
CD33-binding VH: B3 CD33-binding VH
CD33-binding VL: B1 CD33-binding VL with D50K, E92D, S93D, F94L
binding result: binds

B15: C26.I07 (bispecific antibody)
NKG2D-binding VH: B3 NKG2D-binding VH
NKG2D-binding VL: B3 NKG2D-binding VL
CD33-binding VH: EVQLVESGGGLVQPGGSLRLSCAASGFTFGSYWMSWVRQAPGKGLEWVATIKQDGSEKSYVDSVKGRFTISRDNAKNSLYLQMNSLRAEDTAVYYCARPLNAGELDVWGQGTMVTVSS
CD33-binding VL: DIQMTQSPSTLSASVGDRVTITCRASQSISSWLAWYQQKPGKAPKLLIYEASSLESGVPSRFSGSGSGTEFTLTISSLQPDDFATYYCQQSQSYPPITFGGGTKVEIK
binding result: binds

Results, then the binder that gave them:

binding result: binds
B2: A49.H76 (bispecific antibody)
NKG2D-binding VH: B12 NKG2D-binding VH
NKG2D-binding VL: B1 NKG2D-binding VL with D30S, Y94F
CD33-binding VH: B3 CD33-binding VH
CD33-binding VL: B1 CD33-binding VL with D50K, E92D, S93D, F94L

binding result: binds
B5: A49.I07 (bispecific antibody)
NKG2D-binding VH: B12 NKG2D-binding VH
NKG2D-binding VL: B1 NKG2D-binding VL with D30S, Y94F
CD33-binding VH: B15 CD33-binding VH
CD33-binding VL: B15 CD33-binding VL

binding result: binds
B7: A44.I07 (bispecific antibody)
NKG2D-binding VH: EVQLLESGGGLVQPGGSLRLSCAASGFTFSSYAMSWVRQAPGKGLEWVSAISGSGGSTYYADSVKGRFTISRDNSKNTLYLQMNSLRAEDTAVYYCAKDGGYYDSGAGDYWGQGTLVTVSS
NKG2D-binding VL: B1 NKG2D-binding VL
CD33-binding VH: B15 CD33-binding VH
CD33-binding VL: B15 CD33-binding VL

binding result: binds
B8: C26.G59 (bispecific antibody)
NKG2D-binding VH: B3 NKG2D-binding VH
NKG2D-binding VL: B3 NKG2D-binding VL
CD33-binding VH: B1 CD33-binding VH
CD33-binding VL: B1 CD33-binding VL

binding result: binds
B9: A49.G59 (bispecific antibody)
NKG2D-binding VH: B12 NKG2D-binding VH
NKG2D-binding VL: B1 NKG2D-binding VL with D30S, Y94F
CD33-binding VH: B1 CD33-binding VH
CD33-binding VL: B1 CD33-binding VL

binding result: binds
B14: F47.G59 (bispecific antibody)
NKG2D-binding VH: B3 NKG2D-binding VH
NKG2D-binding VL: B1 CD33-binding VL with D50K, E92D, S93T, P95I
CD33-binding VH: B1 CD33-binding VH
CD33-binding VL: B1 CD33-binding VL

binding result: binds
B16: C26.I35 (bispecific antibody)
NKG2D-binding VH: B3 NKG2D-binding VH
NKG2D-binding VL: B3 NKG2D-binding VL
CD33-binding VH: B10 CD33-binding VH
CD33-binding VL: B10 CD33-binding VL
